Values quoted from earlier work, collected in patent US20250064829A1, “METHODS OF USING ANTI-CD79B IMMUNOCONJUGATES TO TREAT DIFFUSE LARGE B-CELL LYMPHOMA” (Genentech, Inc., priority 2019, published 2025).

Assays:
[1] = 1000 mg/m^2 at fixed dose rate of 10 mg/m^2/min compared to the standard 30-minute IV schedule
human CD20 antigen [2] = target: T1, human CD20 antigen (Homo sapiens, UniProt P11836); settings: in vitro
T1 sequence (P11836 1-297): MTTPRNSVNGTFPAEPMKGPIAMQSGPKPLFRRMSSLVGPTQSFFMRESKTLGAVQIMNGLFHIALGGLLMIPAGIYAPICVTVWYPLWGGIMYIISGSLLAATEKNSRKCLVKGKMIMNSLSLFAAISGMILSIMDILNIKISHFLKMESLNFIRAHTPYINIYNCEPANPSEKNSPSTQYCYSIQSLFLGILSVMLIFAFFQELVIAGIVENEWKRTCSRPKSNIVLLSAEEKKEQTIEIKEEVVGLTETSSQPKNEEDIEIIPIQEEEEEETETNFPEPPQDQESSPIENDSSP

human CD20 antigen [3] = target: T1, human CD20 antigen; settings: in vitro mechanism of action studies (Reff et al. 1994)

Compound | intracellular drug concentrations [1] | activity in assays that measure antibody-dependent cellular cytotoxicity (ADCC) (human CD20 antigen [2]) | human complement-dependent cytotoxicity (CDC) (human CD20 antigen [3])
Cl.Nc1ccn([C@@H]2O[C@H](CO)[C@@H](O)C2(F)F)c(=O)n1 [gemcitabine, 2′-deoxy-2′,2′-difluorocytidine monohydrochloride] | superior intracellular drug concentrations | – | –
rituximab: anti-CD20 antibody having the CAS Registry Number 174722-31-7; type I anti-CD20 antibody | – | exhibits activity | exhibits human complement-dependent cytotoxicity (CDC)
